Here are results for one protein from publication PMC3457645.

As usually defined, the Km is the concentration of substrate that gives half-maximal velocity. By Vmax is commonly meant the top rate of the reaction or transport when substrate is in excess.

Experiment in all cases: purified protein
Substrate in series [1]: CCCCCC(O)/C=C/C=O
The following applies: NAD+.

Substrate in series [2]: CCCCCCCC=O
In kind it is biochemical, Homo sapiens. The following applies: NAD+.

Substrate in series [3]: CCCCCC=O
In kind it is biochemical, Homo sapiens. The settings on record: NAD+.

Substrate in series [4]: O=Cc1ccccc1
In kind it is biochemical, Homo sapiens. The following applies: NAD+.

Substrate in series [5]: CC(=O)Oc1ccc([N+](=O)[O-])cc1
In kind it is biochemical, Homo sapiens.

Substrate in series [6]: CC=O
In kind it is biochemical, Homo sapiens. The following applies: NAD+.

B1: ALDH3B1 (Homo sapiens) (protein)
chain: MDPLGDTLRRLREAFHAGRTRPAEFRAAQLQGLGRFLQENKQLLHDALAQDLHKSAFESEVSEVAISQGEVTLALRNLRAWMKDERVPKNLATQLDSAFIRKEPFGLVLIIAPWNYPLNLTLVPLVGALAAGNCVVLKPSEISKNVEKILAEVLPQYVDQSCFAVVLGGPQETGQLLEHRFDYIFFTGSPRVGKIVMTAAAKHLTPVTLELGGKNPCYVDDNCDPQTVANRVAWFRYFNAGQTCVAPDYVLCSPEMQERLLPALQSTITRFYGDDPQSSPNLGRIINQKQFQRLRALLGCGRVAIGGQSDESDRYIAPTVLVDVQEMEPVMQEEIFGPILPIVNVQSLDEAIEFINRREKPLALYAFSNSSQVVKRVLTQTSSGGFCGNDGFMHMTLASLPFGGVGASGMGRYHGKFSFDTFSHHRACLLRSPGMEKLNALRYPPQSPRRLRMLLVAMEAQGCSC
As to B1, the Km in the series “purified protein [1]” stood at 52 ± 5 µM; in the series “purified protein [2]”, 8 ± 2 µM; in the series “purified protein [3]”, 62 ± 8 µM; in the series “purified protein [4]” it was 46 ± 11 µM; in “purified protein [5]”, 3600 ± 250 µM; in the series “purified protein [6]” it was 23300 ± 1500 µM. Also, the Vmax in the series “purified protein [1]” was 0.653 µmol/min/mg; in “purified protein [2]” it was 1.24 µmol/min/mg; in the series “purified protein [3]”, 0.679 µmol/min/mg; in “purified protein [4]” it was 0.129 µmol/min/mg; in “purified protein [5]”, 1.32 µmol/min/mg; in the series “purified protein [6]”, 0.315 µmol/min/mg.
